This passage reports protein stability index results from the supplement of paper PMC10724198.

± gives the standard deviation of the averaged measurements.

This data set has as its system Saccharomyces cerevisiae. Nature of the data set: protein stability index of tFT-peptide fusion (C-terminal peptide) (PSI (0-1 scale)); higher = more stable (slower turnover). As to conditions: temperature: 30 C. The method, then:
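MPS profiling in S. cerevisiae of the yeast C-terminome library: the last 12 aa of each annotated ORF are fused to the C-terminus of a sfGFP-mCherry timer, after a GGGS linker. Cells are FACS-sorted into 8 mCherry/sfGFP bins and deep-sequenced. PSI runs from 0 (unstable) to 1 (stable); wild type and das1Δ backgrounds, two technical replicates each.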

Where [1] appears, read: genetic background: das1 deletion.

Take KGARSRFQKSYR [RPS16A C-terminal 12 aa]: the protein stability index is, setting by setting: under setting [1], 0.707 ± 0.011; (genetic background: wild type) 0.7188 ± 0.0055.

With KGTFLANLTDLI [SWF1 C-terminal 12 aa], the protein stability index under setting [1] stood at 0.7347 ± 0.0012 and the protein stability index (genetic background: wild type) came to 0.665 ± 0.014.

On to KHGTMQFYWRKT [YOR225W C-terminal 12 aa], for which the protein stability index runs as follows: under setting [1], 0.692 ± 0.0073; (genetic background: wild type) 0.386 ± 0.003.

As to KHGVSAVKRYLR [CBP1 C-terminal 12 aa], the protein stability index is, setting by setting: under setting [1], 0.6765 ± 0.0054; (genetic background: wild type) 0.68 ± 0.0089.

On to KKDKPEGWDRLP [KTR6 C-terminal 12 aa], for which the protein stability index by setting is: under setting [1], 0.728 ± 0.046; (genetic background: wild type) 0.711 ± 0.0073.

Turning to KKHSMKSRFKPY [YNL035C C-terminal 12 aa], the protein stability index was 0.696 ± 0.029 under setting [1] and 0.712 ± 0.0099 (genetic background: wild type).

Consider KKKEDKGGLQRS [VHS3 C-terminal 12 aa], for which the protein stability index was 0.6842 ± 0.0022 under setting [1] and 0.697 ± 0.061 (genetic background: wild type).

As to KKKNRSKIKFNY [PTH4 C-terminal 12 aa], the protein stability index worked out at 0.724 ± 0.021 under setting [1] and 0.589 ± 0.011 (genetic background: wild type).

Take KKSPGGPRQRIK [MAP1 C-terminal 12 aa]: the protein stability index stood at 0.694 ± 0.033 under setting [1] and 0.692 ± 0.046 (genetic background: wild type).

“KLEKLKAEKTRR [YDL085C-A C-terminal 12 aa]”: the protein stability index turned out to be 0.669 ± 0.01 under setting [1] and 0.673 ± 0.031 (genetic background: wild type).

On to “KLMEAIFRIRTI [YKL106C-A C-terminal 12 aa]”, for which the protein stability index by setting is: under setting [1], 0.7668 ± 0.0015; (genetic background: wild type) 0.152 ± 0.0039.

Take KLSNWLFGWNDL [ASM4 C-terminal 12 aa]: the protein stability index stood at 0.753 ± 0.019 under setting [1] and 0.746 ± 0.052 (genetic background: wild type).

KLVDVRKVYYSS [MRPS5 C-terminal 12 aa]: the protein stability index runs as follows: under setting [1], 0.7071 ± 0.0029; (genetic background: wild type) 0.6234 ± 0.0043.

As for KLYKNSDFNSEK [RRG7 C-terminal 12 aa], the protein stability index was found to be 0.7 ± 0.0014 under setting [1] and 0.694 ± 0.017 (genetic background: wild type).

As to KMDKRAKTSDSA [RPL8B C-terminal 12 aa], the protein stability index amounted to 0.698 ± 0.0049 under setting [1] and 0.6802 ± 0.0027 (genetic background: wild type).

Turning to KNLADIHKIMGF [MSW1 C-terminal 12 aa], the protein stability index is, setting by setting: under setting [1], 0.6849 ± 0.00012; (genetic background: wild type) 0.709 ± 0.052.

As for KNVTINTRETPL [DAL81 C-terminal 12 aa], the protein stability index runs as follows: under setting [1], 0.694 ± 0.018; (genetic background: wild type) 0.6712 ± 0.0061.

In the case of KPDSTAVRNEDE [YNR065C C-terminal 12 aa], the protein stability index under setting [1] turned out to be 0.7 ± 0.012 and the protein stability index (genetic background: wild type) amounted to 0.66 ± 0.072.

In the case of KQAIYTRAAASE [RPS25B C-terminal 12 aa], the protein stability index by setting is: under setting [1], 0.682 ± 0.054; (genetic background: wild type) 0.69 ± 0.0061.

As for KQGKKKKDCVIM [SKT5 C-terminal 12 aa], the protein stability index by setting is: under setting [1], 0.7193 ± 0.0022; (genetic background: wild type) 0.696 ± 0.047.

Regarding KQKEAWYSFLFK [SCO1 C-terminal 12 aa], the protein stability index stood at 0.7138 ± 0.0035 under setting [1] and 0.68151 ± 0.00058 (genetic background: wild type).

For the sequence KQLGSSHNYTVN [SKG6 C-terminal 12 aa], the protein stability index runs as follows: under setting [1], 0.695 ± 0.019; (genetic background: wild type) 0.696 ± 0.0079.

In turn, KQPRFQLLFEFS [TTI2 C-terminal 12 aa] displayed a protein stability index under setting [1] of 0.687 ± 0.011 and a protein stability index (genetic background: wild type) of 0.6511 ± 0.0017.

For the sequence KQYIEPESVKPN [ABD1 C-terminal 12 aa], the protein stability index came out at 0.6996 ± 0.0034 under setting [1] and 0.722 ± 0.051 (genetic background: wild type).

As to KRIDSYIDEMTT [MCO14 C-terminal 12 aa], the protein stability index came to 0.723 ± 0.011 under setting [1] and 0.664 ± 0.054 (genetic background: wild type).

Turning to KRLHQLDGIPHA [MEO1 C-terminal 12 aa], the protein stability index by setting is: under setting [1], 0.703 ± 0.0079; (genetic background: wild type) 0.6852 ± 0.0018.

KRRIEEIQMLFE [RAD5 C-terminal 12 aa]: the protein stability index under setting [1] turned out to be 0.7081 ± 0.0032 and the protein stability index (genetic background: wild type) stood at 0.683 ± 0.036.

KRSLRRNARKGL [ESC8 C-terminal 12 aa]: the protein stability index turned out to be 0.721 ± 0.0077 under setting [1] and 0.687 ± 0.026 (genetic background: wild type).

For KSALSKTLGLNK [NHA1 C-terminal 12 aa], the protein stability index by setting is: under setting [1], 0.699 ± 0.014; (genetic background: wild type) 0.7038 ± 0.0048.

As to KSCGNNAGARIC [HO C-terminal 12 aa], the protein stability index came out at 0.7093 ± 0.00098 under setting [1] and 0.452 ± 0.022 (genetic background: wild type).

As for KSLETFRTTNTL [FBA1 C-terminal 12 aa], the protein stability index runs as follows: under setting [1], 0.69 ± 0.011; (genetic background: wild type) 0.7271 ± 0.0061.

With KSPSITVNEFFH [RCN2 C-terminal 12 aa], the protein stability index reads like this: under setting [1], 0.698 ± 0.01; (genetic background: wild type) 0.734 ± 0.021.

With KSVPILLPQVCM [YIL059C C-terminal 12 aa], the protein stability index under setting [1] worked out at 0.5945 ± 0.0057 and the protein stability index (genetic background: wild type) worked out at 0.578 ± 0.0092.

Turning to KTDKVLYKRNGY [HPA3 C-terminal 12 aa], the protein stability index reads like this: under setting [1], 0.687 ± 0.02; (genetic background: wild type) 0.675 ± 0.065.

For the sequence KTFKLLTNKWIH [YAR009C C-terminal 12 aa], the protein stability index runs as follows: under setting [1], 0.704 ± 0.018; (genetic background: wild type) 0.587 ± 0.014.

KVFDRSGIVLEK [QRI1 C-terminal 12 aa]: the protein stability index is 0.71 ± 0.013 under setting [1] and 0.701 ± 0.016 (genetic background: wild type).

As for KVKCALERKPYL [ZAP1 C-terminal 12 aa], the protein stability index runs as follows: under setting [1], 0.706 ± 0.05; (genetic background: wild type) 0.6754 ± 0.00096.

Consider KVVTRSIVLWGV [YGL235W C-terminal 12 aa], for which the protein stability index reads like this: under setting [1], 0.632 ± 0.02; (genetic background: wild type) 0.615 ± 0.016.

KYFLRMVYPMKV [ESBP6 C-terminal 12 aa]: the protein stability index turned out to be 0.4888 ± 0.0038 under setting [1] and 0.404 ± 0.031 (genetic background: wild type).

LADHLMEKYLSI [TFC4 C-terminal 12 aa]: the protein stability index is, setting by setting: under setting [1], 0.701 ± 0.025; (genetic background: wild type) 0.658 ± 0.01.

As for LALNRDDPPDML [PEA2 C-terminal 12 aa], the protein stability index is, setting by setting: under setting [1], 0.6989 ± 0.0011; (genetic background: wild type) 0.755 ± 0.13.

LAQQLQQDSEAS [SWC5 C-terminal 12 aa]: the protein stability index turned out to be 0.699 ± 0.039 under setting [1] and 0.701 ± 0.0092 (genetic background: wild type).

With LASDFIGRGYDD [WTM2 C-terminal 12 aa], the protein stability index reads like this: under setting [1], 0.6962 ± 0.0068; (genetic background: wild type) 0.678 ± 0.011.

LATMILARMSCS [IRA1 C-terminal 12 aa] returned a protein stability index under setting [1] of 0.682 ± 0.023 and a protein stability index (genetic background: wild type) of 0.657 ± 0.035.

As for LAYPACLACQAS [VPS69 C-terminal 12 aa], the protein stability index by setting is: under setting [1], 0.6 ± 0.02; (genetic background: wild type) 0.59 ± 0.011.

Consider LCHYLTPYMIIY [YOL106W C-terminal 12 aa], for which the protein stability index is 0.456 ± 0.016 under setting [1] and 0.45 ± 0.011 (genetic background: wild type).

On to “LCILRIVGVANF [YER039C-A C-terminal 12 aa]”, for which the protein stability index reads like this: under setting [1], 0.426 ± 0.0017; (genetic background: wild type) 0.4474 ± 0.0034.

Consider LCSIYKALLLGP [ATF1 C-terminal 12 aa], for which the protein stability index under setting [1] is 0.6813 ± 0.0019 and the protein stability index (genetic background: wild type) was 0.67 ± 0.0087.

Take LDAENNNKCSIM [RHB1 C-terminal 12 aa]: the protein stability index by setting is: under setting [1], 0.7192 ± 0.003; (genetic background: wild type) 0.758 ± 0.027.

The sequence LDAEYYIKFASK [ERD1 C-terminal 12 aa] gave a protein stability index under setting [1] of 0.6942 ± 0.0061 and a protein stability index (genetic background: wild type) of 0.69 ± 0.024.

In the case of LDFAKRKLKKKQ [TFB2 C-terminal 12 aa], the protein stability index under setting [1] was 0.714 ± 0.015 and the protein stability index (genetic background: wild type) stood at 0.622 ± 0.034.

LDMAVIDNTTHN [SDO1 C-terminal 12 aa]: the protein stability index came out at 0.712 ± 0.026 under setting [1] and 0.682 ± 0.016 (genetic background: wild type).

Regarding LDNIERDANDLS [LAM4 C-terminal 12 aa], the protein stability index worked out at 0.695 ± 0.0073 under setting [1] and 0.678 ± 0.008 (genetic background: wild type).

LDTLQTASQYLP [VID22 C-terminal 12 aa] yielded a protein stability index under setting [1] of 0.7056 ± 0.0017 and a protein stability index (genetic background: wild type) of 0.749 ± 0.079.

Turning to LDYALVEMDKLF [UTP13 C-terminal 12 aa], the protein stability index worked out at 0.708 ± 0.033 under setting [1] and 0.708 ± 0.039 (genetic background: wild type).

For LEELDIEEEYSD [ACL4 C-terminal 12 aa], the protein stability index amounted to 0.687 ± 0.059 under setting [1] and 0.673 ± 0.0086 (genetic background: wild type).

Consider LEHGLKVRMDEE [HIS7 C-terminal 12 aa], for which the protein stability index by setting is: under setting [1], 0.7083 ± 0.0038; (genetic background: wild type) 0.72 ± 0.06.

Regarding LELLLAADYLSI [ELC1 C-terminal 12 aa], the protein stability index amounted to 0.698 ± 0.034 under setting [1] and 0.682 ± 0.049 (genetic background: wild type).

Turning to LELVLKNKEMEN [RSA3 C-terminal 12 aa], the protein stability index by setting is: under setting [1], 0.684 ± 0.016; (genetic background: wild type) 0.706 ± 0.092.

With LEQGFKVVSAKE [YCS4 C-terminal 12 aa], the protein stability index is 0.697 ± 0.057 under setting [1] and 0.6812 ± 0.0067 (genetic background: wild type).

Turning to LEQYEKTLVHDD [GCV3 C-terminal 12 aa], the protein stability index is, setting by setting: under setting [1], 0.6942 ± 0.00074; (genetic background: wild type) 0.678 ± 0.05.

Turning to LERILHEMHPPA [EOS1 C-terminal 12 aa], the protein stability index is, setting by setting: under setting [1], 0.714 ± 0.012; (genetic background: wild type) 0.726 ± 0.025.

In turn, LETLKKKKKRNN [MAK5 C-terminal 12 aa] had a protein stability index under setting [1] of 0.711 ± 0.014 and a protein stability index (genetic background: wild type) of 0.66348 ± 0.00034.

As for LFFLVGLQLAIP [YGR022C C-terminal 12 aa], the protein stability index was 0.324 ± 0.002 under setting [1] and 0.327 ± 0.0074 (genetic background: wild type).

“LFQPIIVKPLRS [YHR007C-A C-terminal 12 aa]”: the protein stability index amounted to 0.599 ± 0.016 under setting [1] and 0.625 ± 0.023 (genetic background: wild type).

Take LFTAMRTVLFGK [CBP6 C-terminal 12 aa]: the protein stability index by setting is: under setting [1], 0.704 ± 0.0044; (genetic background: wild type) 0.72 ± 0.14.

Regarding LGYTDDEIYNRQ [SER2 C-terminal 12 aa], the protein stability index reads like this: under setting [1], 0.706 ± 0.026; (genetic background: wild type) 0.681 ± 0.036.
